Values quoted from earlier work, collected in paper PMC6605686.

Molecular target: Glu325 (UniProt position 325, TLHMFEVPFLL)
Experiment: kinetics
Conditions: sugar binding to LacY; apparent pK of galactoside affinity

Substance: Lactose permease (LacY) (Escherichia coli)
- pKa: ∼10.5
